Laboratory results: patent US8440629B2, “Cyclic receptor-associated protein (RAP) peptides” (Raptor Pharmaceuticals Inc., priority 2007, dated 2013)

How the values were obtained:
LRP2 CR34-36 = target: T1, LRP2 CR34-36 (Homo sapiens, UniProt P98164); assay: Solid phase binding assay; settings: highest ligand concentrations tested
T1 construct: a CR triplet from LRP2 (CR34-36); made in house; host or cells: E. coli BL21(DE3) CodonPlus-RIPL, pET30(+)a
Method: (§1) All expression constructs were sequenced to verify insert sequences and the junctions with the expression vector. Each plasmid was then used to transform BL21(DE3) CodonPlus-RIPL™ cells (Stratagene). Expression of the CR proteins was induced in logarithmic growth-phase cells grown in LB supplemented with 34 μg/mL chloramphenicol, 12.5 μg/mL tetracycline and 15 μg/mL kanamycin by addition of 2 mM IPTG, followed by reduction in incubator temperature to 32° C. and incubation for 4 hours with agitation at […]. Cells were pelleted and resuspended, at 3.5% of the initial culture volume in 10 mM Tris-HCl pH 8, 100 mM NaH2PO4, 8M Urea. Resuspended cells were then frozen in liquid nitrogen, rapidly thawed to 37° C. and sonicated for 10 seconds at an amplitude setting of 60 using a Cole-Parmer CP-130 ultrasonic processor connected to a 3 mm probe. This procedure was repeated three times to effect complete lysis of the cells. Lysates were clarified by spinning twice at 10,000×g in a Sorvall RC-5 centrifuge for 20 minutes at 15° C. Ni-NTA columns (Qiagen Superflow™, 1.5 mL packed bed) were used to purify the CR proteins. Briefly, the resin was equilibrated with two column volumes of lysis buffer. The clarified lysate was then supplemented to 20 mM with imidazole and incubated with the equilibrated Ni-NTA resin overnight at 4° C. The flow-through was discarded. Columns were washed once with one column volume of lysis buffer and then three times with one column volume of TBS pH 8 supplemented with 20 mM imidazole. CR-loaded beads were then removed from the column and CR proteins eluted by incubating at room temperature for 30 minutes with one column volume of the same buffer containing 200 mM imidazole. This step was repeated once and the eluates pooled. Eluted CR protein solutions were then supplemented to 2 M urea, 10 mM CaCl2 and 5 mM DTT. Purified, denatured CR protein solutions were transferred to 3,500 MWCO Slide-A-Lyzer™ (Pierce) cassettes and sequentially dialyzed against a 200-fold excess of 50 mM Tris-HCl pH 8.5, 10 mM CaCl2, 1 mM reduced glutathione, 0.5 mM oxidized glutathione at room temperature overnight and then against TBS supplemented with 5 mM CaCl2 at 4° C. overnight. Protein concentrations were determined by Bradford assay and purity confirmed by SDS-PAGE with Coomassie Brilliant Blue staining.
(§2) Purified, refolded CR protein (1 μg) was bound to Nunc Maxisorp™ 96-well plates in TBS pH 8 supplemented with 5 mM CaCl2 (TBSC) overnight at 4° C. Wells were washed with TBSC and then blocked with TBSC containing 2% bovine serum albumin (BSA). RAP ligands were then incubated with the immobilized receptor at a range of concentrations for 2 hours in the above blocking buffer supplemented with 0.05% Tween-20 at room temperature. Control wells contained no added ligand. As an additional control, to determine whether the absence of calcium affected binding, 10 mM EGTA was included in the incubation medium for some samples. Wells were washed with TBSTC and bound ligands detected with polyclonal anti-RAP (BP41/42, 1:1,000, BioMarin). Excess primary antibody was removed and wells washed before incubation with the secondary antibody, HRP-conjugated goat anti rabbit IgG (Bio-Rad). After washing, TMB substrate solutions (Bio-Rad) were added to detect HRP. Color development was stopped with 1N HCl. Absorption at 450 nm was measured with a microplate spectrophotometer (Molecular Devices). Data were plotted and Kd values derived by non-linear regression with the assumption of single-site binding (GraphPad Prism).

LRP2 CR3536 = target: T2, LRP2 CR3536 (Homo sapiens, UniProt P98164); assay: Solid phase binding assay; settings: highest ligand concentrations tested
T2 construct: VLDLR CR78, LRP2 CR3536, LRP2 CR34-36 and MAT CR23; made in house; host or cells: E. coli BL21(DE3) CodonPlus-RIPL, pET30(+)a
Method: as §1, §2

T1 sequence (P98164 3838-3974 limits assumed): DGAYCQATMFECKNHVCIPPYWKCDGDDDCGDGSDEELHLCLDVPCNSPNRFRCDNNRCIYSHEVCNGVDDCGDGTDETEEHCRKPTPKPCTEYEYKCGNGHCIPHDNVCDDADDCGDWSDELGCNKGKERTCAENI
T2 sequence (P98164 3880-3974 limits assumed): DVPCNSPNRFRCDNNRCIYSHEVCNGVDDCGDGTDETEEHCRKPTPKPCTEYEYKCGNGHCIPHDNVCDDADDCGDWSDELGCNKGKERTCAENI

binding relative to that for LRP1 CR3-5 (LRP2 CR34-36): less than 5%
binding relative to that for LRP1 CR3-5 (LRP2 CR3536): less than 5%
B1: RAP d3: third domain of human RAP, amino acids 201-319 of mature RAP, bacterially expressed with hexahistidine and S-peptide tags (SEQ ID NO: 92) (protein, listed as Homo sapiens)
chain: LDRLRRVSHQGYSTEAEFEEPRVIDLWDLEQSANLTDKELEAFREELKHFEAKIEKHNHYQKQLEIAHEKLRHAESVGDGERVSRSREKHALLEGRTKELGYTVKKHLQDLSGRISRAR
modifications: hexahistidine and S-peptide tags
